167 variants from the Human Domainome abundance scans (Beltran et al. 2025) can be followed below.

First the molecules themselves.
B1: Peripheral plasma membrane protein CASK, residues 488 to 569; numbered along this chain, O14936 (parent)
chain: VRLVQFQKNTDEPMGITLKMNELNHCIVARIMHGGMIHRQGTLHVGDEIREINGISVANQTVEQLQKMLREMRGSITFKIVP
B2: Far upstream element-binding protein 1, residues 184 to 257; numbered along this chain, Q96AE4 (parent)
chain: GNAVQEIMIPASKAGLVIGKGGETIKQLQERAGVKMVMIQDGPQNTGADKPLRITGDPYKVQQAKEMVLELIRD

± gives the uncertainty stated by the source.

Variants of B1 are the subject of the first data set. As to the kind of experiment: abundance fitness (aPCA) (normalised: wild type 0, dead -1); higher = more abundant; growth selection in yeast, the domain comes from the species named. The following applies: Homo sapiens.
For the variant L65H, the abundance fitness is -0.402 ± 0.067.

Regarding E63W, the abundance fitness was -0.123 ± 0.027.

With M36E, the abundance fitness was 0.009 ± 0.042.

V28N: the abundance fitness was -1.01 ± 0.25.

For M68I, the abundance fitness is -0.068 ± 0.053.

For D47Y, the abundance fitness was -0.832 ± 0.22.

Take Q60C: the abundance fitness is -0.01 ± 0.033.

As for Q60P, the abundance fitness was -0.984 ± 0.072.

Turning to K79C, the abundance fitness was -0.053 ± 0.054.

Take R70N: the abundance fitness is -0.024 ± 0.041.

On to G34Y, for which the abundance fitness is -0.489 ± 0.14.

For the variant H33C, the abundance fitness was -0.033 ± 0.039.

As to D11V, the abundance fitness was -0.072 ± 0.032.

N53R: the abundance fitness was -0.529 ± 0.043.

Consider N53G, for which the abundance fitness is -0.188 ± 0.03.

K8L: the abundance fitness was -0.028 ± 0.024.

Q40V: the abundance fitness is -0.065 ± 0.021.

In the case of E51R, the abundance fitness is -0.264 ± 0.2.

V1H: the abundance fitness is -0.207 ± 0.069.

Regarding T17C, the abundance fitness was -0.045 ± 0.034.

As for L3Y, the abundance fitness was -0.015 ± 0.043.

As to I49E, the abundance fitness is -0.992 ± 0.13.

Turning to I49L, the abundance fitness is -0.089 ± 0.04.

As to V81I, the abundance fitness was -0.016 ± 0.039.

Take V81M: the abundance fitness was -0.05 ± 0.038.

For I52V, the abundance fitness is -0.036 ± 0.12.

As to R2T, the abundance fitness is -0.038 ± 0.038.

Take M72Q: the abundance fitness is -0.05 ± 0.03.

On to I31P, for which the abundance fitness was -0.791 ± 0.082.

Turning to E71I, the abundance fitness is -0.036 ± 0.061.

With E71C, the abundance fitness was -0.022 ± 0.034.

For the variant S75D, the abundance fitness amounted to 0.033 ± 0.037.

Regarding F6N, the abundance fitness is -0.708 ± 0.069.

With K19N, the abundance fitness was -0.037 ± 0.044.

Turning to V57T, the abundance fitness was found to be 0.027 ± 0.026.

Turning to C26Y, the abundance fitness is -0.07 ± 0.048.

As for N24Y, the abundance fitness was -0.226 ± 0.043.

On to Q66I, for which the abundance fitness was -0.094 ± 0.04.

With A29M, the abundance fitness was -0.057 ± 0.047.

As to G74N, the abundance fitness is -0.243 ± 0.056.

For L43F, the abundance fitness amounted to 0.052 ± 0.055.

In the case of S56A, the abundance fitness is 0.014 ± 0.023.

T61M: the abundance fitness was -0.294 ± 0.039.

Take T61A: the abundance fitness was -0.084 ± 0.024.

N59W: the abundance fitness was -0.157 ± 0.03.

For the variant G41Q, the abundance fitness is -0.113 ± 0.034.

For G41K, the abundance fitness was -0.1 ± 0.032.

The variants in another data set derive from B2. The description is as above. To be noted: Homo sapiens.
Regarding N2V, the abundance fitness was found to be 0.121 ± 0.033.

With N2T, the abundance fitness amounted to 0.154 ± 0.034.

Take N2I: the abundance fitness amounted to 0.168 ± 0.047.

As to N2Q, the abundance fitness was found to be 0.095 ± 0.04.

In the case of N2W, the abundance fitness was -0.028 ± 0.036.

With N2L, the abundance fitness turned out to be 0.09 ± 0.033.

For the variant N2M, the abundance fitness is 0.201 ± 0.038.

Turning to N2K, the abundance fitness was 0.155 ± 0.034.

Take N2A: the abundance fitness is 0.043 ± 0.033.

N2S: the abundance fitness was 0.128 ± 0.031.

As for N2C, the abundance fitness is 0.052 ± 0.046.

As to N2P, the abundance fitness is -0.028 ± 0.038.

Regarding N2E, the abundance fitness was 0.176 ± 0.037.

For the variant N2H, the abundance fitness was -0.311 ± 0.058.

With N2D, the abundance fitness is -0.224 ± 0.047.

Turning to N2R, the abundance fitness is 0.032 ± 0.028.

For the variant N2F, the abundance fitness was found to be 0.043 ± 0.047.

Consider N2Y, for which the abundance fitness was -0.124 ± 0.053.

As to V4G, the abundance fitness was -0.146 ± 0.026.

With V4F, the abundance fitness stood at 0.112 ± 0.047.

Take V4P: the abundance fitness is -0.56 ± 0.048.

For the variant V4E, the abundance fitness came out at 0.051 ± 0.034.

For V4A, the abundance fitness was -0.259 ± 0.033.

Turning to V4H, the abundance fitness stood at 0.031 ± 0.047.

Turning to V4K, the abundance fitness is 0.027 ± 0.037.

For V4L, the abundance fitness was -0.065 ± 0.03.

Take V4N: the abundance fitness stood at 0.073 ± 0.048.

For the variant V4Q, the abundance fitness was determined as 0.009 ± 0.04.

Turning to V4W, the abundance fitness was -0.105 ± 0.034.

With V4Y, the abundance fitness is -0.013 ± 0.05.

Turning to V4C, the abundance fitness is -0.069 ± 0.043.

Regarding V4M, the abundance fitness turned out to be 0.11 ± 0.037.

Take V4S: the abundance fitness was -0.18 ± 0.033.

Consider V4I, for which the abundance fitness was determined as 0.097 ± 0.042.

V4D: the abundance fitness is -0.063 ± 0.043.

As to V4R, the abundance fitness is -0.053 ± 0.026.

As for V4T, the abundance fitness stood at 0.029 ± 0.036.

Consider E6T, for which the abundance fitness is -0.014 ± 0.035.

Turning to E6G, the abundance fitness is -0.358 ± 0.028.

Regarding E6Y, the abundance fitness was -0.232 ± 0.048.

With E6D, the abundance fitness was -0.1 ± 0.043.

Turning to E6R, the abundance fitness was -0.145 ± 0.026.

Turning to E6C, the abundance fitness is -0.366 ± 0.044.

In the case of E6I, the abundance fitness is -0.101 ± 0.047.

Consider E6S, for which the abundance fitness is -0.185 ± 0.031.

On to E6Q, for which the abundance fitness turned out to be 0.024 ± 0.038.

With E6W, the abundance fitness is -0.082 ± 0.033.

In the case of E6P, the abundance fitness is -0.809 ± 0.053.

For E6F, the abundance fitness is -0.217 ± 0.046.

As for E6N, the abundance fitness was -0.146 ± 0.047.

For the variant E6V, the abundance fitness is -0.028 ± 0.031.

Turning to E6M, the abundance fitness was -0.078 ± 0.042.

Regarding E6L, the abundance fitness was -0.187 ± 0.03.

For the variant E6H, the abundance fitness is -0.086 ± 0.045.

For E6A, the abundance fitness is -0.12 ± 0.031.

With A3S, the abundance fitness amounted to 0.196 ± 0.032.

Regarding A3Q, the abundance fitness stood at 0.133 ± 0.038.

A3Y: the abundance fitness was determined as 0.158 ± 0.057.

For A3M, the abundance fitness turned out to be 0.256 ± 0.039.

A3P: the abundance fitness was 0.109 ± 0.037.

For the variant A3L, the abundance fitness amounted to 0.172 ± 0.031.

Consider A3R, for which the abundance fitness is 0.17 ± 0.027.

As for A3F, the abundance fitness worked out at 0.165 ± 0.053.

As to A3H, the abundance fitness is -0.044 ± 0.05.

A3I: the abundance fitness was determined as 0.255 ± 0.053.

For the variant A3E, the abundance fitness came to 0.039 ± 0.036.

Take A3V: the abundance fitness worked out at 0.011 ± 0.032.

In the case of A3N, the abundance fitness is 0.057 ± 0.053.

Consider A3G, for which the abundance fitness is -0.059 ± 0.027.

On to A3K, for which the abundance fitness was 0.181 ± 0.039.

For the variant A3W, the abundance fitness is 0.116 ± 0.033.

With A3T, the abundance fitness worked out at 0.235 ± 0.037.

Take G1Q: the abundance fitness was -0.26 ± 0.13.

G1L: the abundance fitness was -0.042 ± 0.049.

Turning to G1V, the abundance fitness came to 0.038 ± 0.034.

Turning to G1I, the abundance fitness was 0.193 ± 0.086.

Turning to G1Y, the abundance fitness was -0.074 ± 0.067.

Take G1A: the abundance fitness is -0.075 ± 0.039.

With G1C, the abundance fitness was -0.127 ± 0.053.

Turning to G1M, the abundance fitness worked out at 0.173 ± 0.068.

In the case of G1D, the abundance fitness was -0.067 ± 0.042.

For the variant G1S, the abundance fitness was -0.14 ± 0.045.

In the case of G1N, the abundance fitness is -0.073 ± 0.076.

As to G1E, the abundance fitness was -0.061 ± 0.039.

As for G1R, the abundance fitness is -0.176 ± 0.038.

In the case of G1W, the abundance fitness is -0.502 ± 0.056.

Regarding G1P, the abundance fitness is -0.212 ± 0.093.

On to G1F, for which the abundance fitness was -0.027 ± 0.074.

In the case of G1K, the abundance fitness is -0.044 ± 0.068.

On to Q5M, for which the abundance fitness is 0.056 ± 0.035.

Take Q5G: the abundance fitness was -0.036 ± 0.026.

As for Q5A, the abundance fitness is -0.007 ± 0.03.

With Q5H, the abundance fitness is -0.108 ± 0.058.

As to Q5D, the abundance fitness turned out to be 0.021 ± 0.041.

With Q5P, the abundance fitness is -0.726 ± 0.045.

As to Q5C, the abundance fitness was -0.006 ± 0.045.

In the case of Q5K, the abundance fitness came to 0.016 ± 0.036.

Regarding Q5T, the abundance fitness stood at 0.013 ± 0.031.

Take Q5V: the abundance fitness came out at 0.04 ± 0.029.

For Q5Y, the abundance fitness was -0.003 ± 0.051.

As to Q5R, the abundance fitness turned out to be 0.013 ± 0.025.

Consider Q5F, for which the abundance fitness was -0.063 ± 0.051.

As to Q5L, the abundance fitness is -0.029 ± 0.029.

As to Q5I, the abundance fitness was found to be 0.014 ± 0.05.

For Q5E, the abundance fitness was determined as 0.128 ± 0.034.

Take Q5N: the abundance fitness was -0.083 ± 0.051.

On to I7P, for which the abundance fitness is -1.14 ± 0.079.

Turning to I7W, the abundance fitness was -0.651 ± 0.04.

In the case of I7C, the abundance fitness is -0.394 ± 0.045.

Turning to I7N, the abundance fitness was -1.09 ± 0.1.

As to I7D, the abundance fitness was -1.02 ± 0.076.

For the variant I7F, the abundance fitness is -0.229 ± 0.055.

For the variant I7T, the abundance fitness was -0.564 ± 0.045.

I7A: the abundance fitness is -0.674 ± 0.041.

As for I7R, the abundance fitness was -0.861 ± 0.035.

For I7E, the abundance fitness is -0.646 ± 0.041.

I7V: the abundance fitness is -0.045 ± 0.03.

As for I7L, the abundance fitness is -0.026 ± 0.03.

Turning to I7G, the abundance fitness was -0.885 ± 0.035.

I7Q: the abundance fitness was -0.559 ± 0.047.
